Source: patent US20140073761A1, “CONJUGATES CONTAINING HYDROPHILIC SPACER LINKERS” (priority 2007, published 2014)
Like-named read-outs stand apart in the source and are kept apart here.

Columns and labels:
[1] = Cytotoxicity of bortezomib versus EC0501 (FIG. 14); format: cell-based
[2] = Experimental: Toxicity as Measured by Weight Loss. The percentage weight change was determined in mice (5 mice/group) on selected days post-tumor inoculation (PTI), compared to controls, and graphed.
[3] = Hepatobiliary excretion (bile clearance) in bile duct cannulated rats; conditions: 2 μmol/kg i.v. bolus
Description: Comparison of Bile Clearance (% ID) of unconjugated drug, drug conjugate lacking a hydrophilic spacer linker, and conjugates described herein.

[4] = parameters: AUC (DAVLBH biliary excretion): unit not given beside the values; conditions: rat, in vivo, iv
[5] = Serum binding, 30K NMWL filtration, HPLC-UV; format: in vitro ADME; conditions: 50 μM compound in serum, n=3
Experimental: Serum Binding. Serum binding of Folate-DAVLBH conjugates containing hydrophilic spacer linkers compared to Comparative Example EC 145 lacking a hydrophilic spacer linker 50 μM compound in serum with 30K NMWL filtration and evaluation by HPLC-UV detection (n=3).

[6] = Multiple dose MTD, i.v. TIW for 1 week; conditions: mouse, in vivo, iv, Balb/c mice
Experimental: EC0436 and Comparative Example EC0305 were also administered i.v. to Balb/c mice TIW for 1 week. The resulting MTD for the multiple dose was EC0305 ([…]) and EC0436 ([…]).

[7] = FIG. 6B, 7B, 8B, M109 tumors, Balb/c mice, 2 μmol/kg TIW two weeks

## CC(C)C[C@H](NC(=O)[C@H](Cc1ccccc1)NC(=O)c1cnccn1)B(O)O [bortezomib]
[1]
  IC50: 20 nM

## CC[C@]1(O)CC2CN(CCc3c([nH]c4ccccc34)[C@@](C(=O)OC)(c3cc4c(cc3OC)N(C)C3C45CCN4CC=C[C@](CC)(C45)[C@@H](O)[C@]3(O)C(=O)NNC(=O)OCCSSC[C@H](NC(=O)C[C@H](NC(=O)C[C@H](NC(=O)CN3CCN(CCNC(=O)C[C@H](NC(=O)CC[C@H](NC(=O)c4ccc(NCc5cnc6nc(N)[nH]c(=O)c6n5)cc4)C(=O)O)C(=O)O)CC3)C(=O)O)C(=O)O)C(=O)O)C2)C1 (stereo partly shown) [EC0429]
[2]; [7]
  gross toxicity (percentage body weight change): no gross toxicity was observed
[3]
  percent of total dose in the bile (total DAVLBH biliary excretion): 8.6%

## CC[C@]1(O)C[C@H]2CN(CCc3c([nH]c4ccccc34)[C@@](C(=O)OC)(c3cc4c(cc3OC)N(C)[C@H]3[C@@](O)(C(=O)NNC(=O)OCCSSC[C@H](NC(=O)[C@H](CC(=O)O)NC(=O)[C@H](CC(=O)O)NC(=O)[C@H](CCCNC(=N)N)NC(=O)[C@H](CC(=O)O)NC(=O)CC[C@H](NC(=O)c5ccc(NCc6cnc7nc(N)[nH]c(=O)c7n6)cc5)C(=O)O)C(=O)O)[C@H](O)[C@]5(CC)C=CCN6CC[C@]43[C@@H]65)C2)C1 [EC145, reference compound]
[2]; mouse, in vivo
  gross toxicity (percentage body weight change): no gross toxicity was observed
[4]
  AUC (DAVLBH biliary excretion): 1092
  percent of total dose in the bile (total DAVLBH biliary excretion): 8.7%
[5]; human, read-out: Human Serum (% Bound) (converted)
  fraction unbound at 50 μM: 0.457
[5]; mouse, read-out: Mouse Serum (% Bound) (converted)
  fraction unbound at 50 μM: 0.327

## CCCC(=O)OCN(C(=O)[C@@H](NC[C@H]1CCCCN1C)C(C)CC)[C@H](C[C@@H](OC(C)=O)c1nc(C(=O)N[C@@H](Cc2ccc(O)cc2)C[C@H](C)C(=O)NNC(=O)OCCSSC[C@H](NC(=O)[C@H](CC(=O)O)NC(=O)[C@H](CCCNC(=N)N)NC(=O)[C@H](CC(=O)O)NC(=O)CC[C@H](NC(=O)c2ccc(NCc3cnc4nc(N)[nH]c(=O)c4n3)cc2)C(=O)O)C(=O)O)cs1)C(C)C (stereo partly shown) [EC0305, reference compound]
[2]; [7]
  gross toxicity (percentage body weight change): no gross toxicity was observed
[6]
  MTD at 1 week: 6 µmol/kg
